Test results reported in PMC5845931.

Experiments:
[1] = target: PepTSt wild type, proton-dependent oligopeptide transporter from Streptococcus thermophilus (Streptococcus thermophilus) (UniProt Q5M4H8); test: MST; label-free (intrinsic tryptophan fluorescence of PepTSt); 125 nM PepTSt constant, peptide titrated up to the millimolar range; 22°C; pH 7.5, 100 mM Tris-HCl, 150 mM NaCl, 0.03% DDM
[2] = target: PepTSt wild type, proton-dependent oligopeptide transporter from Streptococcus thermophilus (Streptococcus thermophilus) (UniProt Q5M4H8); test: MST; label-free (intrinsic tryptophan fluorescence of PepTSt); 125 nM PepTSt constant, peptide titrated; 22°C; pH 4.5, 100 mM citrate, 150 mM NaCl, 0.03% DDM
[3] = target: PepTSt wild type, proton-dependent oligopeptide transporter from Streptococcus thermophilus (Streptococcus thermophilus) (UniProt Q5M4H8); test: MST; label-free (intrinsic tryptophan fluorescence of PepTSt); 125 nM PepTSt constant, peptide titrated up to the millimolar range; 22°C; pH 7.5, 100 mM HEPES, 150 mM NaCl, 0.03% DDM
[4] = target: PepTSt wild type, proton-dependent oligopeptide transporter from Streptococcus thermophilus (Streptococcus thermophilus) (UniProt Q5M4H8); test: MST; label-free (intrinsic tryptophan fluorescence of PepTSt); 125 nM PepTSt constant, peptide titrated up to the millimolar range; 22°C; pH 7.5, 100 mM NaPi, 150 mM NaCl, 0.03% DDM
[5] = target: PepTSt wild type, proton-dependent oligopeptide transporter from Streptococcus thermophilus (Streptococcus thermophilus) (UniProt Q5M4H8); test: MST; label-free (intrinsic tryptophan fluorescence of PepTSt); 125 nM PepTSt constant, peptide titrated; 22°C; pH 5.0, 100 mM citrate, 150 mM NaCl, 0.03% DDM
[6] = target: PepTSt wild type, proton-dependent oligopeptide transporter from Streptococcus thermophilus (Streptococcus thermophilus) (UniProt Q5M4H8); test: MST; label-free (intrinsic tryptophan fluorescence of PepTSt); 125 nM PepTSt constant, peptide titrated; 22°C; pH 5.5, 100 mM citrate, 150 mM NaCl, 0.03% DDM

Substance	Kd [1] [mM]	further results
Ala-Asp (peptide)	> 100	–
Ala-Leu (peptide)	–	Kd [2]: > 50 mM; Kd [3]: 0.56 mM
Ala-Phe (peptide)	0.95	–
Asp-Glu (peptide)	> 50	–
Leu-Ala (peptide)	13.8	Kd [2]: > 100 mM; Kd [3]: 13.3 mM; Kd [4]: 9.56 mM; Kd [5]: 47 mM; Kd [6]: 23 mM

Continued by falling Kd [1], values first:

Kd [1] [mM]	Substance	further results
10.9	Phe-Ala (peptide)	–
8.59	Ala-Ala (peptide)	–
6.82	Ala-Gln (peptide)	–
3.56	Leu-Leu (peptide)	–
